Measurements published in the supplement of paper PMC12042874.
± gives the uncertainty stated by the source.

Assay: amyloid nucleation score (Sup35N fusion, yeast selection) (log enrichment); library NNK1; higher = more nucleation; inactive = no reads after selection
How it was run: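 Nucleation score: DiMSum log enrichment of output over input reads, centred on the mode score of non-aggregating sequences. Only sequences with at least 100 input reads were kept. Reads came from Illumina sequencing of plasmid inserts before and after 7 days of growth at 30°C without adenine and uracil, in psi-negative yeast expressing Sup35N fused to peptides of 20 random codons after 24 hours of induction with 100 μM copper sulfate.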

In order of rising amyloid nucleation score:
1. IDCGIVRWKNRCGAYAFGVD  -1.52 ± 2.4
2. DDYTGSEVNIITIV  -1.43 ± 0.44
3. LFFECVTLHLYLVKSS  -1.1 ± 2.4
4. TDYSFKLFTFFSSESNGFPI  -1.01 ± 1
5. VRRCFFVYSVR  -0.979 ± 1.2
6. SYIGDCEIFIKEPVGANNLE  -0.909 ± 2.7
7. NFKNRPSRLSRSNRSLFSTG  -0.887 ± 0.85
8. DSDGFQRVPD  -0.736 ± 0.68
9. PFYLEARKVDEVMSLTYIV  -0.693 ± 0.67
10. CGEFGR  -0.682 ± 0.52
11. PLTLFYLLNTHAVEFSKVNC  -0.674 ± 0.47
12. SCDMAEFSEDLTLCLLNHK  -0.651 ± 1.7
13. RDRNNCYFSDDSNLREAT  -0.634 ± 0.62
14. NDVFEHIITFCILRVYHMFC  -0.577 ± 0.3
15. HIENNSLKSDIVGRRGVRLS  -0.549 ± 0.64
16. YDMIWSSMLGFIERQAYMLP  -0.502 ± 0.32
17. DSSLCFGSYLWLVAMSLK  -0.489 ± 0.75
18. MKFFRRFYREYF  -0.431 ± 1
19. APFHEGNIFRAVTFKTYPSR  -0.422 ± 0.72
20. MSGCLDDNANC  -0.382 ± 0.35
21. MVAEIYQAFWVC  -0.349 ± 1.2
22. GPRFNVALES  -0.347 ± 0.38
23. GWYEMASAHHMTDWYGW  -0.337 ± 0.51
24. MRGTSEFYLVRGRYTCISRG  -0.292 ± 0.45
25. GMAVNGYHSLRGKVLEDVGN  -0.289 ± 0.79
26. THCVSLLGIYFFSSWVMIVR  -0.266 ± 0.4
27. MRLLIGEKIMWSLRCCSDKG  -0.263 ± 0.29
28. VLTEGYLFTSLIDL  -0.22 ± 0.43
29. PSTTLFWLVMRKHILQHTRR  -0.215 ± 0.28
30. NSKRTGASLRIELRLQFRKR  -0.215 ± 0.39
31. SMVPQTMGVSQESRCYAGSC  -0.215 ± 0.65
32. CCDDIRTQDLALRAQIP  -0.21 ± 0.32
33. GRLMTFSINRRNVWKCDGSR  -0.207 ± 1.1
34. YFASCRTM  -0.193 ± 0.27
35. TDGQWMSYSFSAFASYVVLG  -0.179 ± 0.58
36. CLVELVYFCGLSVGQ  -0.17 ± 0.85
37. NGLFIRYSVVMAYSELEVVG  -0.162 ± 0.7
38. CLFNQKGMFTSGCKVYLTLV  -0.152 ± 0.27
39. MFRCFSDTKSNRTFCFMHTC  -0.143 ± 0.56
40. FSVARFGWFLVSALLQGWDR  -0.142 ± 0.55
41. MSISRALLGSSFMFGLVISA  -0.14 ± 0.83
42. LYRAAEYSLRILRLKATYPA  -0.134 ± 0.89
43. DNNYSCILAASYLYGLKNYL  -0.12 ± 0.51
44. NFGLPMYYFANDLESTDVVS  -0.115 ± 1.4
45. LVSLRSIRSRRWCSRQFWSM  -0.111 ± 0.5
46. DTNKNFSFSKAQ  -0.081 ± 0.37
47. IYCSCPSKQE  -0.075 ± 0.24
48. INKNCTANEP  -0.067 ± 0.23
49. AVYAAYFWGSI  -0.065 ± 0.69
50. SNSVRNRRIFKKSTVRH  -0.055 ± 0.36
51. WMWGGGRWRRVPRRCMVVGR  -0.054 ± 0.4
52. YGTNKISVALWS  -0.054 ± 0.79
53. SGTESEFKVKMNKLQSSYMG  -0.022 ± 0.45
54. FWVRSGCVSMYGPRRVALEV  -0.003 ± 0.43
55. WSTQSLCFGPT  0.012 ± 0.63
56. RQYDMDLVWKRSQNARKRS  0.033 ± 0.7
57. HSYYGHPHTCFAMKEEVHVR  0.035 ± 0.77
58. VFCYQT  0.055 ± 1.1
59. FSSCVNDFLGGRPPSKVLSF  0.068 ± 0.48
60. FKRFLSLVCV  0.1 ± 0.53
61. GFYGRICL  0.101 ± 0.46
62. FFRIARCHLEDRWVMIAGVL  0.118 ± 0.68
63. VYVFLADNGSDELLMLVLTG  0.12 ± 0.28
64. LQVVALW  0.123 ± 0.56
65. TYSKSVCWAHHHSYTGVCLT  0.127 ± 0.52
66. DCLWPLVSMFLVPLRASKVR  0.128 ± 0.44
67. KLVLLGNK  0.134 ± 0.5
68. LRIFSKLFTSSLYNCFEGIP  0.143 ± 0.58
69. NVGRHV  0.151 ± 0.9
70. IAAVQ  0.162 ± 0.89
71. MHPFVRSEK  0.168 ± 0.36
72. TFSQWWVRSCFGTRMNWCLV  0.174 ± 1.2
73. AVPCSC  0.189 ± 0.3
74. GPNTPSWYGCL  0.196 ± 0.6
75. SLGFIFTEILYIFIVAWFII  0.198 ± 0.47
76. PWVTLVRAMCMFINVDLVSR  0.201 ± 0.72
77. GSPVCTRRRPASLPPLRQVH  0.208 ± 0.45
78. YYYGKVA  0.227 ± 0.57
79. LCTLCIALPVMRVLSTVPVP  0.267 ± 0.59
80. AQSSVKRWGGLCRNVMKDGW  0.276 ± 0.32
81. CVTCFTLGSVRGKRTASACW  0.322 ± 0.18
82. TELSEHVRSRLWSKG  0.355 ± 0.42
83. GRGTRLYVRRQW  0.39 ± 0.28
84. RGELAVRKPG  0.402 ± 0.28
85. KRFSSCLRRWAACNGESAAL  0.412 ± 0.45
86. DAYTGCIDNSVANAG  0.481 ± 0.6
87. GGWDAGGGHAIRRIVECMVR  0.601 ± 1.1
88. VCFEVWSGHFSASLTM  0.663 ± 0.44
89. MIRQYDCSVFKCRERYFWAF  0.675 ± 0.85
90. LALKYPSLISPKRWT  0.688 ± 0.36
91. ICNPGVS  0.71 ± 0.8
92. GYGQCSGSYAGSGGT  0.715 ± 0.57
93. NVVAYTCNFFCDGSLSGYLC  0.784 ± 0.41
94. FCEDKNRRSSPSIWQNNCKM  0.829 ± 0.16
95. LKGVIYAVANWGWIISGHEV  0.837 ± 0.23
96. MMVLKFGMLVLSGDLAPATS  0.854 ± 0.72
97. SWWVGTCFSGQWTVLGFP  0.961 ± 0.69
98. GEYRDGFSLRVMGLHGSLNH  1.07 ± 0.58
99. NLVAT  1.09 ± 0.67
100. WLGLGVRALRSENVCCRAFH  1.1 ± 0.49
101. IVDSVRGKGVY  1.14 ± 0.79
102. NPVGSSRVVYRAPNHVIV  1.18 ± 0.58
103. VMCQCYSGGM  1.31 ± 0.4
104. SLSMLTARGLILNMCNGMRF  1.52 ± 0.84
105. LLNAFWSFAY  1.6 ± 0.32
106. QMTCSD  1.6 ± 0.8
107. GDDLQFT  1.88 ± 0.69
108. YSYGCCSMLNVVS  1.93 ± 0.2
109. VELSYCMQRMSARIQCGRKP  2.09 ± 0.43
110. WLPFLVFCRGESYYRLDRSS  2.42 ± 0.091
111. TIFVYSKTNL  2.64 ± 0.18
112. RKSPATVVFSRPSLWLYGRR  2.97 ± 0.094
113. NVTFEADLQLLCSRCSWFGT  3.17 ± 0.061
114. FFSMSSVTNKFSTSCRLNHS  3.18 ± 0.099
115. AFSSVEFRLDVNVFPEWVVL  3.9 ± 0.12
116. SIYALVSCSVFVTAMDAVQA  4.17 ± 0.061
117. DMVVRDQHL  4.7 ± 0.066
118. CNMVHVVIERDGSGRRGCGL  5.38 ± 0.055
119. FAQMWSLALRISVRNVISQF  5.954 ± 0.047
120. NLSIYIYSNNLLLNVF  6.194 ± 0.052
121. SNAIVTFIVGVAAPGTYYS  6.47 ± 0.062
122. MGMGNVYAIQFCPMILWD  6.783 ± 0.057

With LIRREHSRL the amyloid nucleation score was “inactive”.
In the case of FPQLGLG, the amyloid nucleation score is reported as “inactive”.
For YPGRWSSYRLEGSTKNARNG, the amyloid nucleation score was “inactive”.
In the case of CNDFCCT, the amyloid nucleation score is reported as “inactive”.
In the case of YYVGSYTL, the amyloid nucleation score is reported as “inactive”.
For DTLGRSLLYYIRYSRVNFPV, the amyloid nucleation score was “inactive”.
With ARHSYN the amyloid nucleation score was “inactive”.
